Measurements: publication PMC6255772, “Enhanced anti-metastatic bioactivity of an IGF-TRAP re-engineered to improve physicochemical properties” (Scientific Reports, 2018)

Tests used:
[1] = molecular target: T1, recombinant human IGF-2 (human); assay: SPR; Biacore T200, competition in solution: 5 nM hIGF-1 or hIGF-2 incubated 1 h with 0.12-500 nM IGF-TRAP, injected over about 4000 RU MEDI-573 amine-coupled to a CM-5 chip; free ligand read 10 s after end of injection; PBS 0.05% Tween 20, 25 °C; details: both partners purified
T1 construct: human insulin-like growth factor 2, recombinant; also called rhIGF-2; hIGF-2; source: bought: Sigma-Aldrich

[2] = molecular target: T2, recombinant human IGF-1 (Homo sapiens, UniProt P05019); assay: as above; details: both partners purified
T2 construct: human insulin-like growth factor 1, recombinant; also called rhIGF-1; hIGF-1; source: bought: Sigma-Aldrich
T2 sequence (P05019 49-118): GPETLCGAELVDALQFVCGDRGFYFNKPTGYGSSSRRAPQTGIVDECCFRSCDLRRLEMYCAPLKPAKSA

binding result [1]: binds
binding result [2]: binds
B1: dusigitumab (MEDI-573) (antibody, V domains shown)
VH: QVQLVQSGAEVKKPGASVKVSCKASGYTFTSYDINWVRQATGQGLEWMGWMNPNSGNTGYAQKFQGRVTMTRNTSISTAYMELSSLRSEDTAVYYCARDPYYYYYGMDVWGQGTTVTVSS
VL: QSVLTQPPSVSAAPGQKVTISCSGSSSNIENNHVSWYQQLPGTAPKLLIYDNNKRPSGIPDRFSGSKSGTSATLGITGLQTGDEADYYCETWDTSLSAGRVFGGGTKLTVL
